Assay: label from the status in PepcDB records

Row | Sequence | protein production
1 | DLEPRERLHRILEQVLVFAGAMVAAAYTHSEDGDQLCLAESAGVPRSLYGLRDSYPLTGGTPAADVHRSGQPLWLTPEDLGRCADARRLPNGDFSLAVLPLGDGGCLAAVSERAGGFDADDRECLRLLAGSVA | failed
2 | MRALRGWPLAWFLLALAFAIRLLSLGSYPLMDTTEARYGEVARKMAELGDWITPWYDVGVPFWGKPPLAFWLSAGGQLLLGANEFASRLPHWLLGVLVLWLVWDWQAREDRRQARIACVLLGSSALFFVASGAVMTDMALALALVLAMRGFWLGLHGAEGIRRREGWLMFLGLGLGLLAKGPLTLILAGLPIGLWALLEWRWRALWRGLPWIRGSLLMLLVAAPWYLLAELKTPGFLEYFLLGEHWQRFVTAGWDGDRYGNAHAYPYGSVWLFLLAAAFPWSLWLPLLLWLGWRQRGEVVDGVASRRRYWLFWGLAPCLFFTFAGNVLWTYVLPGLPALALLAADLLRAPLARSAWLRRGGLACLALTPLLFALFLGSLLLGSRAEQKSTAALLASDAGWRERPLVFWPKRPYSAVFYSGGRAQRAEDSELAGWLRRDALLAIRSRSFGALPDEVRQRLRCRPPVGQYQLCQGVAPPG | failed
3 | MSDDLALTALAASSFSLPELREGQLAGMTALVERRDVLAVMPTGYGKSATYQVAALYLHNKTGRPAVVVSPLIALQEDQLDGLAEHLGEGAGVAINSSRSDAEVEAAWQAVESGQAAFLFLAPEQLSKRETVERIANLDITMFVVDEAHCVSSWGHDFRPDYLELGHVREHLGNPPVIALTATASPPVRDEIVKRLGMTEPVVLVRGFDRPNISLDVVRHQEDKGKRKAVMEQVVALAKAEGLGLLYAATRKATEKYAAKLTEHGLRAEAYHAGRADSDRESIHERFLDDQLDVVVATTAFGMGIDKPNVRFVVHADIPESLDSYYQEIGRAGRDGEPATAILHYRAEDLGLRKFFATHSPDAEALTAVLKVIKNAGAPVPKTALVELTGFPARRVTALVNQLEEAGAVTTGKRGTRLSSKAKLTTLVDRAVELAEARQRVDQSRLTMMRAYAETDACRRQFLLGYFGEDLPEPCGNCDACAEIHDDAGSGSAGHLTSTAENLFPLQSTVIHKEWGPGLVMRHEDDVMTVLFEQEGYKTLSRAAVVEHELLKPA | failed
4 | QQMQAESGFVQHVGFKCDNCGIEPIQGVRWHCQDCPPEMSLDFCDSCSDCLHETDIHKEDHQLEPIYRS | not failed
5 | MLTHYAALRASDRETFLIIELGGLGGRMGLVFVVMIVVLLYAPVHVPTYVGTLLGLLFVSIAFEIWMIVRRMRQDGLMARD | failed
6 | MVPSASDAWRTALRDLRETLPERTVQNWLDPIQPLDLSTDEGSPTLTLQVPTPFGIQYLRSRFQRSIRQAVSEAVGEPTDVTYQVAPEEERPDEIATDSGSSGSAPDEPDASSSPQDRPSSAPSSDQAGRSSTSPRPSEPVSSSSPAGREAINQSPSPDASTSGGASSPTGPTTPRPSSPDVADVSDAGRTDDASAPSPPQTDAGSPDERSALYEQAKQHLRPEYTFDEFVEGDGNRLARSAAFAVAQEPGSTNYNPLLVYGGVGLGKTHLAQAVANYALEHNTAERVLYVSSDRFTSQFVQSVRENRIAAFSSYYRQADLLIVDDVQFFGEKEKTQEEFFHIFNDLHQNGKQIFLCADRPPAEIPGIEERLLSRFQWGLSADIQRPDLETRIAILQRKAARQDIAVSPDVLELIAQRIDSNVRQLEGALTRLTALVQLDDRTLDLDTARRFLREHTDEGADALNADDIIEQVAEYFRLEKGDLLSRSRKQTVAQARQIAMYLCRELTDESYDHIGSRFGGRDHSTVIHAYRKIEEDLESDTELQDDISSLQSNLQDRSLSSSL | failed
7 | MTRIIPFALAVAALATAGAAQASTMVIGGGAAKECSDSALKGRSDKRSVLACTSALELENLNFRDRARTYVNRGVLQMRQKDFGAARSDFDAAGAIDPNLGEVFVNRGAAYVGEERYREGVEQIDKGLALGVKEPEKAWFNRGLANEGLGDLKAAFRDYSRAAELNPDWPAPKLELTRFSVKRP | failed
8 | MARTFRSLRNFNYRVWASGAIVSNIGTWMQRTAQDWLVLTELTHHNATAVGIVMSLQFGPQMLLLPLTGYAADHFNRRKLLFITQTAMGLLALGLGLMTVTGLVRLWHVYVFALLLGCVTAFDAPARQTFVSDLVGEEDLPNAVALNSTSFNGARMIGPAITGLLIASIGTGWVFLINALSFVPVIGALRMLRQHELHLKPPAQRSRGSFLEGFRYVWKRPDLKAALFMLFLIGTFGLNFPIFISTMSVSAFHAGAGQYGLLSSTMAIGSVTGTLLAARRARPRMAILVGAATIFGVGCMFGALMPNAVLFGLTLAVIGASTQTFTTSTNSLVQISTEPAMRGRVIAILLAIALGTTPLGAPVVGWVADRFGPRWALGVGAASGFAAALVGLFYLMRNRNLRFYIETGRLRYSIDKPRQTAFMAAPAASVPNVVMSKAEDE | failed
9 | MGKGDPKKPRGKMSSYAFFVQTCREEHKKKHPDASVNFSEFSKKCSERWKTMSAKEKGKFEDMAKADKARYEREMKTYIPPKGETKKKFKDPNAPKRPPSAFFLFCSEYRPKIKGEHPGLSIGDVAKKLGEMWNNTAADDKQPYEKKAAKLKEKYEKDIAAYRAKGKPDAAKKGVVKAEKSKKKKEEEEDEEDEEDEEEEEDEEDEDEEEDDDDE | failed
10 | MKSVFHLWRSHMRHLNDMALFVEVARARSFRKAAEALGMPNSTLSRRVSELEKAIGLRLLHRTTRKIELTEAGQLYYERSKRIVDEARLAHEQLGAMLNQPSGVLRVSLPVNLATFYLTPIIGEFARHYPGITFEFDLTPRRVDLVAEPFDVAIRIGKLEDSGLITRLIGRHSRHLYASPGYIEASGEPATPAELAEHECIGMLRSPIWSLHQGINKVDVAVRGRFTLNSVGMIRALAVNHQGIALLPEKIVAEDVAFGRLRRILPEWQGSAVSIFAVTETRLIPAKTQRFIEFLSSRLMEA | failed
11 | MSLKKLLLLLIIVALFISAFAFDLTQYLSLDVLKEKQQQLNQLFVDYPFQVFAIYFVVYVASTALSLPGATILTLGAGAIFGLGWGLLLASFAASLGAFLAFLSARFILHDWVQEKFGDRLTAINRGMERDGAFYLLSLRLVPLFPFFVINLVMGLTKIKAWTFYWVSQVGMLLGTAVYVNAGTQLAQISSLGDVISADLIGAFVLLGIFPLIAKAVLAFVKRRKAFKGYKKPKSFDNNLVVIGAGSAGLVSAYIAATVKAKVTLIEKHKMGGDCLNTGCVPSKALLHVAELAHNARNASSAGVHVGEVSVDFKQVMQQVKSVIKDIEPHDSVERYTKLGVDVEQGDARIVSPWEVEVTSNVEGKSETKRITTRSIIIATGAKPLVPDFEGLDKVDYLTSDTLWELDELPKRLLVLGGGPIGCELSQAFQRLGSQVTQVEMAERLMGPEDADTVELLTRRLTAEGIDIRLNHKALRFEQHNGESVLIAEQTVDNESVDNQNADQSKDVEIPFDKVLIALGRQPNITGFGLEELGVQTNKTVSTNELLQTNFPNIYACGDVAGPYQLTHVASHQAWYASVNALFDPFKTFRADYSVIPWVTYTSPQVANVGLTEQQAKKADKPYEVTEYDIGELDRAIADDSAYGRVKVLTKPGKDELLGVNIVGPQAGELLAEYVLAMKYGIGLNKILGTIHSYPTLAEANKYVAGEWKRANAPQKLLTWVEKFHRWRRS | failed
12 | SASLLDKAKDFVADKLTAIPKPEGSVTDVDLKDVNRDSVEYLAKVSVTNPYSHSIPICEISFTFHSAGREIGKGKIPDPGSLKAKDMTALDIPVVVSYSILFNLARDVGVDWDIDYELQIGLTIDLPVVGEFTIPISSKGEIKLPTFKDFF | failed
13 | MTMAVGTFKQSRFQLPLPRLSVMDRYLFVELFLPFIFGMGMFTSLALSIGTLFDLVRRVTESGLPMDIAVKILFLKMPEFVVLAFPMSMLLASLMAYSRLSSDSELIALRSIGVSIYRLVVPALLFGIVVTGIAFVFNDRITPAASYEALATLDRAIHQDRPPRQEQNIIYPEYGMVRQPDGNEKNILKRLFYAEEFNGSEMKGLTILDRTQSGVNQVLTAERASWNISENTWDFYDGTVYLIAPDGSYRNIVRFRHQQLALPRAPLDLASQERKDGEMTIAQSRRYLEVLRLSGDDKKVRKLEVRIQKKYALPFVCFVFGLIGAAIGVRPQNTNKATSFGICVGLIFFYYLLSFLSESMGIWGALDPFTAAWLPNFLGLIAGTILLVQSSRLR | failed
14 | MTQTDRPCLAALVILILLQLIMLFSLFAGVPPHPPIATPLFGIGPFIGASVSAAIAAIVLGESRAARVLALLAVLGALVSFGPQKYLDPQFPLIWPAVIAAQLAAITVLVRLLPALSRQDA | failed

— a protein production outcome set (Wang et al. 2014)
